# Laboratory results reported in the RNAGym collection of RNA variant scans (doi:10.1073/pnas.2313332121).
# Variants at the floor of the assay were thinned out.
# B1: TPR 5TU (parent)
# chain: GGAUCUUCUCGAUCUAACAAAAAAGACAAAUCUGCCACAAAGCUUGAGAGCAUCUUCGGAUGCAGAGGCGGCAGCCUUCGGUGGCGCGAUAGCGCCAACGUUCUCAACUAUGACACGCAAAACGCGUGCUCCGUUGAAUGGAGUUUAUCAUG
# Variants of: B1
# Assay: polymerase ribozyme fitness, log enrichment relative to wild type (log ratio); higher = more active; in vitro selection for triplet polymerase activity
# How it was run: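 Input and output libraries were sequenced on Illumina after a single in vitro selection round, run in triplicate on PCR-built, transcribed mutant libraries of each subunit of a heterodimeric triplet polymerase ribozyme. Selection annealed libraries to a biotinylated primer, the partner subunit and triplets, incubated them frozen at −7 °C, then gel-excised extended constructs for streptavidin-bead capture and RT-PCR. Genotypes with ≥10 input reads and ≥1 read per output were kept. Fitness is the logarithm, taken in base 2, of genotype enrichment divided by wild-type enrichment, using inverse-variance-weighted replicate averages.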
row,Variant,polymerase ribozyme fitness (log ratio)
1,GGAUCUUCUCGAUCUAACAAAAAAGUCAAAUCUGCCACAAAGCUUGAGAGCAUCUUCGGAUGCAGAGGCGGCAGCCUUCGGUGGCGCGAUAGCGCCAACGUUCUCAACUAUGACAUGCAAAACGCGUGCUCCGUUGAAUGGAGUUUAUCAUG [A26U C116U],-1.09
2,GGAUCUUCUCGAUCUAACAAAAAAGAAAAAUCUGCCACAAAGCUUGAGAGCAUCUUCGGGUGCAGAGGCGGCAGUCUUCGGUGGCGUGAUAGCGCCAACAUUCUCAACUAUGACAUGCAAAACGCGUGCUCCGUUGAAUGGAGUUUAACAUG [C27A A60G C75U C87U G100A C116U U148A],≤ -4.2
3,GGAUCUUCUCGAUCUAACAAAAAAGAAAAAUCUGCCACAAUGCUUGAGAGCAUCUUCGGAUGCAGAGGCGGCAGCCUUCGGUGGCGCGAUAGCGCCAACGUUCUCAACUAUGACAUGCAAAACGCGUGCUCCGUUCAAUGGAGAUUAUCAUG [C27A A41U C116U G136C U144A],≤ -4.2
4,GGAUCUUCUCGAUCUAACAAAAAAGUCAAAUCUGCCACAAAGCUUGAGAGCAUCAUCGGCUGCAGAGGCGGCAGCCUUCGGUGGCGCGAUAGCGCCAACGUUCUCAACUAUGACACGCAAAACGCGUGCUCCGUUGAAUGGAGUUUAUCAUG [A26U U55A A60C],≤ -4.2
5,GGAUCUUCUCGAUCUAACAAAAAAGUCAAAUCUGCCACAAAGCUUGAGAGCAUCUUCGGAUGCAGAGGCGGCAGCAUUCGGUGGCCCGAUACCGACAACGUUCUCAACUAUGACACGCAAAACGCGUGCUCCGUUGAAUGGAGGUUAUCAUG [A26U C76A G86C G92C C95A U144G],≤ -4.2
6,GGAUCUUCUCGAUCUAACAAAAAAGUCAAAUCUGCCACAAAGCUUGAGAGCAUCUUCGGAUGCAGAGGCGGCAGCCUUCGGUGGCGCGAUAGCGCCAACGUUAUCAACUAUGACACGCAAAACGCGUGCUCCGUUGAAUGGAGUUUAUCAUG [A26U C103A],≤ -4.2
7,GGAUCUUCUCGAUCUAACAAAAAAGUCAAAUCUGCCACAAAGCUUGAGAGCAUCUUCGGAUGGAGAGGCGGCAGCCUUCCGUGGGGCGAUAGCGCCAACGUUCUCAACGAUGACACGCAAAUCGCGUGCUCCGUUGAAUGGAGUUUAUCAUG [A26U C63G G80C C85G U109G A122U],≤ -4.2
8,GGAUCUUCUCGAUCUAACAAAAAAGUCAAAUCUGCCACAAAGCUUGAGAGCAUCUUCGGAUGCAGAGGCGGCAGCCUUCGGUGGCGUGAUAGCGCCAACGUUCUCAACUAUGACACGCAAAACGCGUGCUCCGUUGAAUGUAGUUUAUCAUG [A26U C87U G141U],-1.66
9,GGAUCUUCUCGAUCUAACAAAAAAGUCAAAGCUGCUACAAAGCUUGAGAGCAUCUUCGGAUGCAGAGGCGGCAGCCUUCGUUGGCGCGAUAGCGCCAACGUUCUCAACUAUGACACGCAAAACGCGUGCUCCGUUGAAUGGAGUUUAUGAUG [A26U U31G C36U G81U C149G],≤ -4.2
10,GGAUCUUCUCGAUCUAACAAAAAAGUCAAAUCGGCCAUACAGCUUGAGAGCAUCUACGGAUGCAGAGGCGGCAGCCUUCGGUAGCGCGGUAGCGCCGACGUUCUCAACUAUGACACGCAAAACGCGUGCUCCGUUGAAUGCAGUUUAUCAUG [A26U U33G C38U A40C U56A G83A A89G A97G G141C],≤ -4.2
11,GGAUCUUCUCGAUCUAACAAAAAAGUCAAAUCUGCCACAAAGCUUGAGAGCAACUUCGGAUGCAGAGGCGGCAGCAUUCGGUGGCGCGAUAGCGCCAACGUUCUCAACUAUGACACGCAAAACUCGUGCUCCGUUGAAUGGAGUCUAUCAUG [A26U U53A C76A G124U U145C],≤ -4.2
12,GGAUCUUCUCGAUCUAACAAAAAAGUCAAAUCUGCCACAAAGCUUGAGAGCAUCUUCGGAUGCAGAGGCGGCAGCCUUCGGUGGCGCGAUAGCGCCAACGUUCUCAACUAUGACACGCAAAACGCGUGCUCCGUUGAAUGGAGUUGAUCAUG [A26U U146G],-1.92
13,GGAUCUUCUCGAUCUAACAAAAAAGUCAAAUCUGCCACAAAGCUAGCGAGCAUCUUCGGAGGCAGAGGCGGCAGCCUUGUGUGGCGCGAUAGCGCCAACGUUCUCAACUAUGACACGCAAAGCGCGUGGUCCGUUGAAUGGAGUUUAUCAUG [A26U U45A A47C U61G C79G G80U A122G C129G],≤ -4.2
14,GGAUCUUCUCGAUCUAACAAAAAAGUCAAAUCUGCCACAAAGCAUGAGAGCAUCUUCGGAUGCAGAGGCGGCAGCCUUCGGUGGCGCGAUAGCGCCUACGUUCUCAACUAUGACACGCAAAACGCGUGCUCCGUUGAAUGGAGUUUAUCAUG [A26U U44A A97U],≤ -4.2
15,GGAUCUUCUCGAUCUAACAAAAAAGAAAAAUCUGCCACAAGGCUUGAGAGCAUAUUCGGAUGCAGAGGCGGGAGCCUUCGGUGGCGCGAUAGCGCCAACGUUGUCAACUAUGACACGCAAAACGCGUGCUCCUUUGAAUGUAGAGUAUCAUG [C27A A41G C54A C72G C103G G133U G141U U144A U145G],≤ -4.2
16,GGAUCUUCUCGAUCUAACAAAAAAGUCAAAUCUGCCACAAACCUUGAGAGCAUCUUCGGAUGCAGAGGCGGAAGCCUUCGGUGGCGCGAUAGAGCCAACGUUCUCAACUAUGACAUGCAAAACGCGUGCUCCGUUGAAUGGAGUUUAUCAUG [A26U G42C C72A C93A C116U],≤ -4.2
17,GGAUCUUCUCGAUCUAACAAAAAAGUCAAAUCUGCCACAAAGCUUGAGAGCAUCUUCGGAUGCAGAGGCGGCAGCCUUCGGUGGCGCGAUAUCGCCAACGUUCUCAACUAUGACACGCAAAACGCGUGCUCCGUUGAAUGGAGUUUAUCAUG [A26U G92U],-2.66
18,GGAUCUUCUCGAUCUAACAAAAAAGUCAAAUCUGCCACAAAGCUUGAGAGCAUCGACGGAUGCAGAGGCGGCAGCCUUCGGUGGCGUGAUAGCGCUAACGUUCUCAACUAUGACACGCAAAACGCGUGCUCCGUUGAAUGGAGUUUAUCAUG [A26U U55G U56A C87U C96U],-3.35
19,GGAUCUUCUCGAUCUAACAAAAAAGUCAAAUCUGCCACAAAGCUUGAGAGCAUCUUCGGAUGCAGAGGCGGCAGCCUUCAGUGGCGCGAUAGCGCCAACGUUCUCAACUAUGACACGCAAAACGCGUGCUCCGUUGAAUGGAGUUUAUCAUG [A26U G80A],-2.3
